{
  "source": "patent US5354676A",
  "about": "“Recombinant modified thermostable NAD-dependent dehydrogenases and process for their production” (The University of Bristol, priority 1989, dated 1994)",
  "proteins": {"B1": {"name": "Bacillus stearothermophilus NAD-dependent L-lactate dehydrogenase, wild type (WT) (Geobacillus stearothermophilus) (protein)", "chain": "MKNNGGARVVVIGAGFVGASYVFALMNQGIADEIVLIDANESKAIGDAMDFNHGKVFAPKPVDIWHGDYDDCRDADLVVICAGANQKPGETRLDLVDKNIAIFRSIVESVMASGFQGLFLVATNPVDILTYATWKFSGLPHERVIGSGTILDTARFRFLLGEYFSVAPQNVHAYIIGEHGDTELPVWSQAYIGVMPIRKLVESKGEEAQKDLERIFVNVRDAAYQIIEKKGATYYGIAMGLARVTRAILHNENAILTVSAYLDGLYGERDVYIGVPAVINRNGIREVIEIELNDDEKNRFHHSAATLKSVLARAFTR", "notes": "made in house; host or cells: E. coli"}, "B2": {"name": "Bacillus stearothermophilus L-lactate dehydrogenase variant GG (235-6 AA→GG) (Geobacillus stearothermophilus; A222G/A223G) (protein)", "chain": "B1 chain with A222G, A223G"}, "B3": {"name": "Bacillus stearothermophilus L-lactate dehydrogenase variant MVS (102-5 QKP→MVS) (Geobacillus stearothermophilus; K87V/P88S/Q86M) (protein)", "chain": "B1 chain with Q86M, K87V, P88S", "notes": "made in house; host or cells: E. coli TG2, vector pKK223-3"}, "B4": {"name": "Bacillus stearothermophilus L-lactate dehydrogenase variant MVS/GG (102-5 QKP→MVS and 235-6 AA→GG) (Geobacillus stearothermophilus; A222G/A223G/K87V/P88S/Q86M) (protein)", "chain": "B1 chain with Q86M, K87V, P88S, A222G, A223G", "notes": "as for B3"}},
  "assay_in_all_cases": "purified protein, by the assay type",
  "key": {"[1]": {"substrate": "NC(=O)C1=CN([C@@H]2O[C@H](COP(=O)(O)OP(=O)(O)OC[C@H]3O[C@@H](n4cnc5c(N)ncnc54)[C@H](O)[C@@H]3O)[C@@H](O)[C@H]2O)C=CC1", "format": "biochemical, Bacillus stearothermophilus", "conditions": "other: WT; in the presence of 0.5 mM pyruvate; pH 6.0", "procedure": "(§1) Steady-state reaction rates were determined by following the change in A340 due to the consumption of NADH. […] The buffer for all experiments was 100rmM triethanolamine-HC1/NaOH,pH 6."}, "[2]": {"substrate": "CC(=O)C(=O)O", "format": "biochemical, Bacillus stearothermophilus", "conditions": "other: WT, No FBP, pH 6", "procedure": "as §1"}, "[3]": {"substrate": "NC(=O)C1=CN([C@@H]2O[C@H](COP(=O)(O)OP(=O)(O)OC[C@H]3O[C@@H](n4cnc5c(N)ncnc54)[C@H](O)[C@@H]3O)[C@@H](O)[C@H]2O)C=CC1", "conditions": "other: GG; in the presence of 0.5 mM pyruvate; pH 6.0", "procedure": "as §1"}, "[4]": {"substrate": "NC(=O)C1=CN([C@@H]2O[C@H](COP(=O)(O)OP(=O)(O)OC[C@H]3O[C@@H](n4cnc5c(N)ncnc54)[C@H](O)[C@@H]3O)[C@@H](O)[C@H]2O)C=CC1", "format": "biochemical", "conditions": "in the presence of 0.5 mM pyruvate, pH 6.0", "procedure": "as §1"}, "[5]": {"substrate": "CC(=O)C(=O)O", "format": "biochemical", "conditions": "other: MVS, No FBP, pH 6", "procedure": "as §1"}},
  "note": "Residue numbers refer to the chain shown, from its start. In names and notes the source's numbering stands.",
  "data": [
    {"protein": "B1", "values": [
      {"measurement": "Km", "setting": "[1]", "value": 18, "unit": "µM"},
      {"measurement": "Km", "setting": "[2]", "value": 3000, "unit": "µM"},
      {"measurement": "kcat/Km", "setting": "[2]", "value": 83000, "unit": "M⁻¹ s⁻¹"}
    ]},
    {"protein": "B2", "values": [
      {"measurement": "Km", "setting": "[3]", "value": 18, "unit": "µM"}
    ]},
    {"protein": "B3", "values": [
      {"measurement": "Km", "setting": "[4]; other: MVS", "value": 14.5, "unit": "µM"},
      {"measurement": "Km", "setting": "[5]", "value": 15000, "unit": "µM"},
      {"measurement": "kcat", "setting": "[5]", "value": 61, "unit": "s⁻¹"},
      {"measurement": "kcat/Km", "setting": "[5]", "value": 4100, "unit": "M⁻¹ s⁻¹"}
    ]},
    {"protein": "B4", "values": [
      {"measurement": "Km", "setting": "[4]; other: MVS/GG", "value": 14.5, "unit": "µM"}
    ]}
  ]
}
